Substitutions are numbered along the chain they refer to. Numbered stars: 1 amine (or outer) side, 2 acyl side, 3 side chain; on linkers, the order of the positions; unused ones are H or OH. Square brackets hold non-standard residues; d marks the D form. Side chains are listed from the residue outwards. Ends that are not written are not given here. * marks the point of attachment. γGlu = O=C(O)[C@H](CCC(=O)[*:2])N[*:1]; Stearoyl = CCCCCCCCCCCCCCCCCC(=O)*; Palmitoyl = CCCCCCCCCCCCCCCC(=O)*; Aib = CC(C)(N)C(=O)O
T1: human GIP receptor (human, UniProt P48546 22-466)
T1 sequence (looked up): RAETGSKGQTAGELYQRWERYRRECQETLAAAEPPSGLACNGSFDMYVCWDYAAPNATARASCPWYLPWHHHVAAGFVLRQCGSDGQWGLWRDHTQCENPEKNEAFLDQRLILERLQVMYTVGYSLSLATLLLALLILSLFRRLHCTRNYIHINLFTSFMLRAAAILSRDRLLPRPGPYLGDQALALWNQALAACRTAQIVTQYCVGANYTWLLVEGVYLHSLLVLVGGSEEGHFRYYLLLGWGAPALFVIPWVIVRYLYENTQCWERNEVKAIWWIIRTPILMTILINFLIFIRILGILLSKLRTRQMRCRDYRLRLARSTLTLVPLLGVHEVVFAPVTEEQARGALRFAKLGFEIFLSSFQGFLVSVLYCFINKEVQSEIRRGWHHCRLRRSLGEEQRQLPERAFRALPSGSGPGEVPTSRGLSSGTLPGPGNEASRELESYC

B1: SEQ ID NO: 17 (peptide)
peptide: H[dS]QGTFTSDLSKQK([γGlu-γGlu-Palmitoyl])DEEAVRLFIEWL[Aib]AGGPSSGAPPPS-NH2
modifications: N-terminus assumed
SMILES: CCCCCCCCCCCCCCCC(=O)N[C@@H](CCC(=O)N[C@@H](CCC(=O)NCCCC[C@H](NC(=O)[C@H](CCC(N)=O)NC(=O)[C@H](CCCCN)NC(=O)[C@H](CO)NC(=O)[C@H](CC(C)C)NC(=O)[C@H](CC(=O)O)NC(=O)[C@H](CO)NC(=O)[C@@H](NC(=O)[C@H](Cc1ccccc1)NC(=O)[C@@H](NC(=O)CNC(=O)[C@H](CCC(N)=O)NC(=O)[C@@H](CO)NC(=O)[C@@H](N)Cc1c[nH]cn1)[C@@H](C)O)[C@@H](C)O)C(=O)N[C@@H](CC(=O)O)C(=O)N[C@@H](CCC(=O)O)C(=O)N[C@@H](CCC(=O)O)C(=O)N[C@@H](C)C(=O)N[C@H](C(=O)N[C@@H](CCCNC(=N)N)C(=O)N[C@@H](CC(C)C)C(=O)N[C@@H](Cc1ccccc1)C(=O)N[C@H](C(=O)N[C@@H](CCC(=O)O)C(=O)N[C@@H](Cc1c[nH]c2ccccc12)C(=O)N[C@@H](CC(C)C)C(=O)NC(C)(C)C(=O)N[C@@H](C)C(=O)NCC(=O)NCC(=O)N1CCC[C@H]1C(=O)N[C@@H](CO)C(=O)N[C@@H](CO)C(=O)NCC(=O)N[C@@H](C)C(=O)N1CCC[C@H]1C(=O)N1CCC[C@H]1C(=O)N1CCC[C@H]1C(=O)N[C@@H](CO)C(N)=O)[C@@H](C)CC)C(C)C)C(=O)O)C(=O)O
B2: SEQ ID NO: 10 (peptide)
peptide: H[dS]QGTFTSDLSKQK([γGlu-Stearoyl])EEEAVRLFIEWL[Aib]AGGPSSGAPPPS-NH2
modifications: N-terminus assumed
SMILES: CCCCCCCCCCCCCCCCCC(=O)N[C@@H](CCC(=O)NCCCC[C@H](NC(=O)[C@H](CCC(N)=O)NC(=O)[C@H](CCCCN)NC(=O)[C@H](CO)NC(=O)[C@H](CC(C)C)NC(=O)[C@H](CC(=O)O)NC(=O)[C@H](CO)NC(=O)[C@@H](NC(=O)[C@H](Cc1ccccc1)NC(=O)[C@@H](NC(=O)CNC(=O)[C@H](CCC(N)=O)NC(=O)[C@@H](CO)NC(=O)[C@@H](N)Cc1c[nH]cn1)[C@@H](C)O)[C@@H](C)O)C(=O)N[C@@H](CCC(=O)O)C(=O)N[C@@H](CCC(=O)O)C(=O)N[C@@H](CCC(=O)O)C(=O)N[C@@H](C)C(=O)N[C@H](C(=O)N[C@@H](CCCNC(=N)N)C(=O)N[C@@H](CC(C)C)C(=O)N[C@@H](Cc1ccccc1)C(=O)N[C@H](C(=O)N[C@@H](CCC(=O)O)C(=O)N[C@@H](Cc1c[nH]c2ccccc12)C(=O)N[C@@H](CC(C)C)C(=O)NC(C)(C)C(=O)N[C@@H](C)C(=O)NCC(=O)NCC(=O)N1CCC[C@H]1C(=O)N[C@@H](CO)C(=O)N[C@@H](CO)C(=O)NCC(=O)N[C@@H](C)C(=O)N1CCC[C@H]1C(=O)N1CCC[C@H]1C(=O)N1CCC[C@H]1C(=O)N[C@@H](CO)C(N)=O)[C@@H](C)CC)C(C)C)C(=O)O
B3: SEQ ID NO: 12 (peptide)
peptide: HXQGTFTSDLSKQKDEEAARLFIEWLXAXGPSSGAPPPS
modifications: D-Ser at 2; Lys 14 side chain K(γE-γE-x53) = (S)-4-Carboxy-4-((S)-4-carboxy-4-hexadecanoylamino-butyrylamino)-butyryl-; Aib at 27; D-Ala at 29; C-terminal amide
B4: SEQ ID NO: 19 (peptide)
peptide: B3 peptide with A28K, X29G
modifications: D-Ser at 2; Lys 14 side chain K(γE-γE-x53) = (S)-4-Carboxy-4-((S)-4-carboxy-4-hexadecanoylamino-butyrylamino)-butyryl-; Aib at 27; C-terminal amide
B5: SEQ ID NO: 22 (peptide)
peptide: B3 peptide with X29G
modifications: D-Ser at 2; Lys 14 side chain K(AEEAc-AEEAc-AEEAc-x70) = [2-(2-{2-[2-(2-{2-[2-(2-Octadecanoylamino-ethoxy)-ethoxy]-acetylamino}-ethoxy)-ethoxy]-acetylamino}-ethoxy)-ethoxy]-acetyl-; Aib at 27; C-terminal amide
B6: SEQ ID NO: 25 (peptide)
peptide: B3 peptide with A28K
modifications: D-Ser at 2; Lys 14 side chain K(γE-x70) = (S)-4-Carboxy-4-octadecanoylamino-butyryl-; Aib at 27; D-Ala at 29; C-terminal amide
B7: SEQ ID NO: 20 (peptide)
peptide: B3 peptide with X29G
modifications: D-Ser at 2; Lys 14 side chain K(AEEAc-AEEAc- E-x53) = (2-{2-[2-(2-{2-[(4S)-4-Carboxy-4-hexadecanoylamino-butyrylamino]-ethoxy}-ethoxy)-acetylamino]-ethoxy}-ethoxy)-acetyl; Aib at 27; C-terminal amide
B8: SEQ ID NO: 18 (peptide)
peptide: B3 peptide with A28S, X29T
modifications: D-Ser at 2; Lys 14 side chain K(γE-γE-x53) = (S)-4-Carboxy-4-((S)-4-carboxy-4-hexadecanoylamino-butyrylamino)-butyryl-; Aib at 27; C-terminal amide
B9: SEQ ID NO: 24 (peptide)
peptide: B3 peptide with A28K
modifications: D-Ser at 2; Lys 14 side chain K(γE-γE-x53) = (S)-4-Carboxy-4-((S)-4-carboxy-4-hexadecanoylamino-butyrylamino)-butyryl-; Aib at 27; D-Ala at 29; C-terminal amide
B10: SEQ ID NO: 15 (peptide)
peptide: B3 peptide with A28S, X29G
modifications: D-Ser at 2; Lys 14 side chain K(γE-γE-x53) = (S)-4-Carboxy-4-((S)-4-carboxy-4-hexadecanoylamino-butyrylamino)-butyryl-; Aib at 27; C-terminal amide
B11: SEQ ID NO: 21 (peptide)
peptide: B3 peptide with X29G
modifications: D-Ser at 2; Lys 14 side chain K(AEEAc-AEEAc- E-x70) = (2-{2-[2-(2-{2-[(4S)-4-Carboxy-4-octadecanoylamino-butyrylamino]-ethoxy}-ethoxy)-acetylamino]-ethoxy}-ethoxy)-acetyl; Aib at 27; C-terminal amide
B12: SEQ ID NO: 8 (peptide)
peptide: H[dS]HGTFTSDLSKQK([γGlu-Stearoyl])DEEAARLFIEWL[Aib]AGGPSSGAPPPS-NH2
modifications: N-terminus assumed
SMILES: CCCCCCCCCCCCCCCCCC(=O)N[C@@H](CCC(=O)NCCCC[C@H](NC(=O)[C@H](CCC(N)=O)NC(=O)[C@H](CCCCN)NC(=O)[C@H](CO)NC(=O)[C@H](CC(C)C)NC(=O)[C@H](CC(=O)O)NC(=O)[C@H](CO)NC(=O)[C@@H](NC(=O)[C@H](Cc1ccccc1)NC(=O)[C@@H](NC(=O)CNC(=O)[C@H](Cc1c[nH]cn1)NC(=O)[C@@H](CO)NC(=O)[C@@H](N)Cc1c[nH]cn1)[C@@H](C)O)[C@@H](C)O)C(=O)N[C@@H](CC(=O)O)C(=O)N[C@@H](CCC(=O)O)C(=O)N[C@@H](CCC(=O)O)C(=O)N[C@@H](C)C(=O)N[C@@H](C)C(=O)N[C@@H](CCCNC(=N)N)C(=O)N[C@@H](CC(C)C)C(=O)N[C@@H](Cc1ccccc1)C(=O)N[C@H](C(=O)N[C@@H](CCC(=O)O)C(=O)N[C@@H](Cc1c[nH]c2ccccc12)C(=O)N[C@@H](CC(C)C)C(=O)NC(C)(C)C(=O)N[C@@H](C)C(=O)NCC(=O)NCC(=O)N1CCC[C@H]1C(=O)N[C@@H](CO)C(=O)N[C@@H](CO)C(=O)NCC(=O)N[C@@H](C)C(=O)N1CCC[C@H]1C(=O)N1CCC[C@H]1C(=O)N1CCC[C@H]1C(=O)N[C@@H](CO)C(N)=O)[C@@H](C)CC)C(=O)O

Biological target: human GLP-1 receptor (human, UniProt P43220 24-463)
Assay: cell-based or functional assay

Compared with B1, B2 is 2.7-fold higher in “EC50 hGLP-1R” value: 0.0024 nM for the first, 0.0065 nM for the second.

H[dS]HGTFTSDLSKQK([γGlu-γGlu-Palmitoyl])DEEAARLFIEWL[Aib]K[dA]GPSSGAPPPS-NH2 [SEQ ID NO: 26] and B3 are within 1.5-fold of each other in “EC50 hGLP-1R” value: 0.002 nM for the first, 0.0028 nM for the second.

B4 and B5 are within 1.5-fold of each other in “EC50 hGLP-1R” value: 0.002 nM for the first, 0.0018 nM for the second.

Going from B6 to B7, the “EC50 hGLP-1R” value rises from 0.0021 nM to 0.0043 nM (2-fold).

First: B8
Second: B9
The “EC50 hGLP-1R” value of the first is 1.5-fold higher: 0.0036 nM for the first, 0.0024 nM for the second.

Going from B10 to B11, the “EC50 hGLP-1R” value falls from 0.0018 nM to 0.001 nM (1.8-fold).

In the case of B12, the “EC50 hGLP-1R” value is reported as 0.0018 nM.

Biological target: T1, human GIP receptor
Assay: cell-based or functional assay

Going from B1 to B2, the “EC50 hGIP-R” value falls from 7.08 nM to 0.982 nM (7.2-fold).

Going from H[dS]HGTFTSDLSKQK([γGlu-γGlu-Palmitoyl])DEEAARLFIEWL[Aib]K[dA]GPSSGAPPPS-NH2 [SEQ ID NO: 26] to B3, the “EC50 hGIP-R” value falls from 5.53 nM to 0.336 nM (16-fold).

First: B5
Second: B6
The “EC50 hGIP-R” value of the first is 2-fold lower: 4.16 nM for the first, 8.32 nM for the second.

B7 and B8 are within 1.5-fold of each other in “EC50 hGIP-R” value: 20.2 nM for the first, 27.5 nM for the second.

First: B9
Second: B10
The “EC50 hGIP-R” value of the first is 2.6-fold higher: 14.1 nM for the first, 5.5 nM for the second.

Going from B11 to B12, the “EC50 hGIP-R” value falls from 2.45 nM to 0.538 nM (4.6-fold).

Biological target: human glucagon receptor (human, UniProt P47871 26-477)
Sequence (P47871 26-477): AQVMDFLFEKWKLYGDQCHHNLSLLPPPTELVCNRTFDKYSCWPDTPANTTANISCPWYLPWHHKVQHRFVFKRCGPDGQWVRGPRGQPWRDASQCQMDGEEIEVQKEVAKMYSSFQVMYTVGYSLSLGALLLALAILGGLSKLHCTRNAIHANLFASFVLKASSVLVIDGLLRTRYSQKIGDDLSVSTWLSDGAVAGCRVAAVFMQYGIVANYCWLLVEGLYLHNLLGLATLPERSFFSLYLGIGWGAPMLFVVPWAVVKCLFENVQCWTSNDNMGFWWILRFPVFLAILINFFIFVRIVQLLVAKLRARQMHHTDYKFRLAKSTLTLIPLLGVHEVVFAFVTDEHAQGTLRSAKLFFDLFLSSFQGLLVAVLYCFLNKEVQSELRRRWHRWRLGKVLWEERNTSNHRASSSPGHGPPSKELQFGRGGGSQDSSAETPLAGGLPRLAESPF
Assay: cell-based or functional assay

Going from B1 to B2, the “EC50 hGlucagon-R” value rises from 0.0471 nM to 0.14 nM (3-fold).

First: H[dS]HGTFTSDLSKQK([γGlu-γGlu-Palmitoyl])DEEAARLFIEWL[Aib]K[dA]GPSSGAPPPS-NH2 [SEQ ID NO: 26]
Second: B3
The “EC50 hGlucagon-R” value of the first is 1.6-fold lower: 0.0406 nM for the first, 0.066 nM for the second.

Going from B5 to B6, the “EC50 hGlucagon-R” value rises from 0.0064 nM to 0.0432 nM (6.8-fold).

Compared with B7, B8 is 8.6-fold lower in “EC50 hGlucagon-R” value: 0.0884 nM for the first, 0.0103 nM for the second.

First: B9
Second: B10
The “EC50 hGlucagon-R” value of the first is 6.2-fold higher: 0.0765 nM for the first, 0.0123 nM for the second.

Compared with B11, B12 is 1.9-fold lower in “EC50 hGlucagon-R” value: 0.0091 nM for the first, 0.0048 nM for the second.

— US20150322128A1 (Sanofi, published 2015)
